This is an account of results in patent publication US20220380486A1 (COMMISSARIAT A L ENERGIE ATOMIQUE ET AUX ENERGIES …, published 2022).

This series concerns the molecule itself. Description: self-assembly (homo-oligomerisation) by crystallisation on a substrate.

B1: Mutant with a self-reducing sequence at the C-terminal part, SEQ ID NO: 31 (C-terminal part and histidine tag modified) (other)
chain: MKHHHHHHPGAMARKELSSLEELFRHYGVRYMTLTKMVEMGFTVNTLVNMTEQELDDVIRTLVDIYRVDLLVGEKYGIKSAVRAEKRRLDELERKKGGSWAGAKRLVLRRE
For B1, the binding result is “binds”.

B2: Mutant of the C-terminal part and histidine tag, SEQ ID NO: 27 (other)
chain: MHHHHHHGAMARKELSSLEELFRHYGVRYMTLTKMVEMGFTVNTLVNMTEQELDDVIRTLVDIYRVDLLVGEKYGIKSAVRAEKRRLDELERKKGGSHHHHHH
In the case of B2, the binding result was “binds”.

B3: Mutant of the C-terminal part and histidine tag, SEQ ID NO: 26 (other)
chain: MHHHHHHGAMARKELSSLEELFRHYGVRYMTLTKMVEMGFTVNTLVNMTEQELDDVIRTLVDIYRVDLLVGEKYGIKSAVRAEKRRLDELERKKGGSC
As to B3, the binding result was “binds”.

B4: Mutant with a self-reducing sequence at the C-terminal part, SEQ ID NO: 29 (C-terminal part and histidine tag modified) (other)
chain: MKHHHHHHPGAMARKELSSLEELFRHYGVRYMTLTKMVEMGFTVNTLVNMTEQELDDVIRTLVDIYRVDLLVGEKYGIKSAVRAEKRRLDELERKKGGSTGTSVLIATPGV
Turning to B4, the binding result is reported as “binds”.

B5: Mutant of the C-terminal part and the histidine tag, SEQ ID NO: 18 (C-terminal part removed, histidine tag modified) (other)
chain: MHHHHHHGAMARKELSSLEELFRHYGVRYMTLTKMVEMGFTVNTLVNMTEQELDDVIRTLVDIYRVDLLVGEKYGIKSAVRAEKRR
For the protein B5, the binding result is “binds”.
